From patent US20130315910A1 (Xencor, published 2013)
Residue numbers refer to the chain shown, from its start. Numbers in names are those of the source.

T1: human FcγRIIb receptor protein (R&D Systems) (human, UniProt P31994 46-217)
T1 construct: Bought protein injected over captured antibody in Biacore; also called CD32b
T1 sequence (looked up): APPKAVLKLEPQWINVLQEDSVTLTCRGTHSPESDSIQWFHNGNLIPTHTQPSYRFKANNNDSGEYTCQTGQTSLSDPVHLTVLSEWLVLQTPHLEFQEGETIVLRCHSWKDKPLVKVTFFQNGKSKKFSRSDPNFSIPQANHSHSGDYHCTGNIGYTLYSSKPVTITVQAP

T2: human FcγRIIa (131R), His- and GST-tagged (human, UniProt P12318 34-217)
T2 construct: Expressed in HEK293T cells, purified by nickel chromatography; also called R131 FcγRIIa; not shown: 6xHis and GST tags of the pTT5 vector
T2 sequence (looked up): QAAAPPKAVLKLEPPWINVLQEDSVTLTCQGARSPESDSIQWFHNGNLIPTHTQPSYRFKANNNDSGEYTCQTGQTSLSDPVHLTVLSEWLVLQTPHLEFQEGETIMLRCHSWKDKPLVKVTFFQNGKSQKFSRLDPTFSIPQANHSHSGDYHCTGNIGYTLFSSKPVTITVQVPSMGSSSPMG

T3: human FcγRIIa (131H), His- and GST-tagged (human, UniProt P12318 34-217)
T3 construct: also called H131 FcγRIIa; HIIa; not shown: 6xHis and GST tags of the pTT5 vector
T3 sequence (looked up): T2 sequence (looked up) with R134H

T4: mFcγRIIb (Mus musculus, UniProt P08101)
T4 construct: extracellular region, C-terminal His- and GST-tag; also called mouse FcγRII
T4 sequence (receptor extracellular region, looked up): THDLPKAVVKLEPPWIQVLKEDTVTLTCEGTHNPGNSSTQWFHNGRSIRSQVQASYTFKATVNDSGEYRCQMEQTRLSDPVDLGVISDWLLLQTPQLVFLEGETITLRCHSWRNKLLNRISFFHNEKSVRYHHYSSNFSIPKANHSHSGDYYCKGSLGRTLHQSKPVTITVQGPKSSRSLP

T5: cynoFcγRIIb (Macaca fascicularis, UniProt A0A140HDP4)
T5 construct: extracellular region, C-terminal His- and GST-tag; also called cynomolgus monkey FcγRIIb
T5 sequence (receptor extracellular region): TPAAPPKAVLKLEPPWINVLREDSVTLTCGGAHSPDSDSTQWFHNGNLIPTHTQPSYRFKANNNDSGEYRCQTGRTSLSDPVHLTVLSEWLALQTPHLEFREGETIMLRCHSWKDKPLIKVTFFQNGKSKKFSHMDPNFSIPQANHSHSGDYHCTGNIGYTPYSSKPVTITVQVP

B1: G236D/S239D/S267E (antibody, human IgG1, kappa)
heavy: EVQLVESGGGLVKPGGSLKLSCAASGYTFTSYVMHWVRQAPGKGLEWIGYINPYNDGTKYNEKFQGRVTISSDKSISTAYMELSSLRSEDTAMYYCARGTYYYGTRVFDYWGQGTLVTVSSASTKGPSVFPLAPSSKSTSGGTAALGCLVKDYFPEPVTVSWNSGALTSGVHTFPAVLQSSGLYSLSSVVTVPSSSLGTQTYICNVNHKPSNTKVDKKVEPKSCDKTHTCPPCPAPELLDGPDVFLFPPKPKDTLMISRTPEVTCVVVDVEHEDPEVKFNWYVDGVEVHNAKTKPREEQYNSTYRVVSVLTVLHQDWLNGKEYKCKVSNKALPAPIEKTISKAKGQPREPQVYTLPPSREEMTKNQVSLTCLVKGFYPSDIAVEWESNGQPENNYKTTPPVLDSDGSFFLYSKLTVDKSRWQQGNVFSCSVMHEALHNHYTQKSLSLSPGK
light: DIVMTQSPATLSLSPGERATLSCRSSKSLQNVNGNTYLYWFQQKPGQSPQLLIYRMSNLNSGVPDRFSGSGSGTEFTLTISSLEPEDFAVYYCMQHLEYPITFGAGTKLEIKRTVAAPSVFIFPPSDEQLKSGTASVVCLLNNFYPREAKVQWKVDNALQSGNSQESVTEQDSKDSTYSLSSTLTLSKADYEKHKVYACEVTHQGLSSPVTKSFNRGEC
notes: HuAM4G7 anti-CD19 IgG1 (m1) with these Fc substitutions, EU index; copies: 2 + 2
B2: L234W (antibody, human IgG1, kappa)
heavy: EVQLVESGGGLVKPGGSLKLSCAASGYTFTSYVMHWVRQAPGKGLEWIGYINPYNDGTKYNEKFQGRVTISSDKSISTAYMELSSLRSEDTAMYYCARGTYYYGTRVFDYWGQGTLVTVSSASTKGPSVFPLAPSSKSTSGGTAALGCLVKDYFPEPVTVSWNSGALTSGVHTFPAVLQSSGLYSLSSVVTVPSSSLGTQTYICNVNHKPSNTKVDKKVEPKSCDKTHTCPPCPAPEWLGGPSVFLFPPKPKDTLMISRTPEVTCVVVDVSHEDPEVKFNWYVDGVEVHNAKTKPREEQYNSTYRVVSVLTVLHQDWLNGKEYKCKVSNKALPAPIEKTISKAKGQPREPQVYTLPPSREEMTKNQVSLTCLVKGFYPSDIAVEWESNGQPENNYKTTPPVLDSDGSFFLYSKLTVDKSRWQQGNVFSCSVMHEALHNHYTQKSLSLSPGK
light: B1 light
notes: HuAM4G7 anti-CD19 IgG1 (m1) with this Fc substitution, EU index; copies: 2 + 2
B3: L235D/S267E (antibody, human IgG1, kappa)
heavy: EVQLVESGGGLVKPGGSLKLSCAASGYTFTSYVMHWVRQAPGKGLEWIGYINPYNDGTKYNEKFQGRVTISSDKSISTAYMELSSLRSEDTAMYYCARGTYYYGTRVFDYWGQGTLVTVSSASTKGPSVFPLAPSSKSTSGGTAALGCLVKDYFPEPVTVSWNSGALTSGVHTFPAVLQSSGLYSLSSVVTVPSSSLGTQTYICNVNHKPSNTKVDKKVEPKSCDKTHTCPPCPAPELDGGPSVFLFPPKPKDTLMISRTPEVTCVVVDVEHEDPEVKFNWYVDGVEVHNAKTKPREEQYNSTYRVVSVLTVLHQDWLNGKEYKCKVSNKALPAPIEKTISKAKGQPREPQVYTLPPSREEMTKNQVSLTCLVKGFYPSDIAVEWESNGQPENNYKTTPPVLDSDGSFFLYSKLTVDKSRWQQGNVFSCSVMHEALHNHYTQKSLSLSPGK
light: B1 light
notes: as for B1
B4: L234F/S267E (antibody, human IgG1, kappa)
heavy: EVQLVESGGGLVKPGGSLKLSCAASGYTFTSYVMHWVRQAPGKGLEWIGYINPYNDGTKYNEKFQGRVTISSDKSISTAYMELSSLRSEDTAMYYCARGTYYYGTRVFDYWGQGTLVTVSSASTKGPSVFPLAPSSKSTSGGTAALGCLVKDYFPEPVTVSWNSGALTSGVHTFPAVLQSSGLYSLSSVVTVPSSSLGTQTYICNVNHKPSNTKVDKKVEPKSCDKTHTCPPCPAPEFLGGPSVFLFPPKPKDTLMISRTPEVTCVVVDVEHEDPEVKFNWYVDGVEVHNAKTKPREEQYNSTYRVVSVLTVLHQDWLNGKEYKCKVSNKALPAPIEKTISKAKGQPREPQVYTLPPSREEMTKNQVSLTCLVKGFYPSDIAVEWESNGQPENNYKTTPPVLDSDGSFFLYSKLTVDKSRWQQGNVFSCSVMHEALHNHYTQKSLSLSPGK
light: B1 light
notes: as for B1
B5: G236D/S267E/H268E (antibody, human IgG1, kappa)
heavy: B1 heavy with D243S, H272E
light: B1 light
notes: as for B1
B6: L234W/S239E/S267E (antibody, human IgG1, kappa)
heavy: B1 heavy with L238W, D240G, D243E
light: B1 light
notes: as for B1
B7: G236T (antibody, human IgG1, kappa)
heavy: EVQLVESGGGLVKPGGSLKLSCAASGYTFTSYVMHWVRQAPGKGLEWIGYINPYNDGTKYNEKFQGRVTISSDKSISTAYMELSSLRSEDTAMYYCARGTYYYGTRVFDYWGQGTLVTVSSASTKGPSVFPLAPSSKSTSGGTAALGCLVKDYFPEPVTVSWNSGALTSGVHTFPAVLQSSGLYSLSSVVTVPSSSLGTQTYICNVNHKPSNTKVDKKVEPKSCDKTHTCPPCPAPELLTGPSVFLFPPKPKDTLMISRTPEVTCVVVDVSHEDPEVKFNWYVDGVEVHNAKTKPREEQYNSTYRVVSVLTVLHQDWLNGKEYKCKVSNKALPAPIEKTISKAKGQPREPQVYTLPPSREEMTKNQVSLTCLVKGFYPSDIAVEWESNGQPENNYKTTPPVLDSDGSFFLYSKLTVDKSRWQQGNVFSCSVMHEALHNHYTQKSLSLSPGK
light: B1 light
notes: as for B2
B8: L234E/S267E/L328F (antibody, human IgG1, kappa)
heavy: B1 heavy with L238E, D240G, D243S, L332F
light: B1 light
notes: as for B1
B9: G237D/S267E (antibody, human IgG1, kappa)
heavy: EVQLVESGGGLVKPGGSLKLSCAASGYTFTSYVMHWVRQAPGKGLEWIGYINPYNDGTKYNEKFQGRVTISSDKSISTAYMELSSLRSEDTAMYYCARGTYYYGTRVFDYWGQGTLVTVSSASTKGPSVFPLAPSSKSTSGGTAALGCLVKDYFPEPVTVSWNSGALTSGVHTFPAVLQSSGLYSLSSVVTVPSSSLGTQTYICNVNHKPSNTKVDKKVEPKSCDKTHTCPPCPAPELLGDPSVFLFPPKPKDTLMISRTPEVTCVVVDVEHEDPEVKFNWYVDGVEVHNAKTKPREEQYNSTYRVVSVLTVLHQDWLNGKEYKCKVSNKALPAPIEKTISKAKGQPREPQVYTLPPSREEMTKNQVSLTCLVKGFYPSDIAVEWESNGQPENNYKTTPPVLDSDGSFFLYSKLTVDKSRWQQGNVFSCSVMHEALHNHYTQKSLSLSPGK
light: B1 light
notes: as for B1
B10: L234E/S267E (antibody, human IgG1, kappa)
heavy: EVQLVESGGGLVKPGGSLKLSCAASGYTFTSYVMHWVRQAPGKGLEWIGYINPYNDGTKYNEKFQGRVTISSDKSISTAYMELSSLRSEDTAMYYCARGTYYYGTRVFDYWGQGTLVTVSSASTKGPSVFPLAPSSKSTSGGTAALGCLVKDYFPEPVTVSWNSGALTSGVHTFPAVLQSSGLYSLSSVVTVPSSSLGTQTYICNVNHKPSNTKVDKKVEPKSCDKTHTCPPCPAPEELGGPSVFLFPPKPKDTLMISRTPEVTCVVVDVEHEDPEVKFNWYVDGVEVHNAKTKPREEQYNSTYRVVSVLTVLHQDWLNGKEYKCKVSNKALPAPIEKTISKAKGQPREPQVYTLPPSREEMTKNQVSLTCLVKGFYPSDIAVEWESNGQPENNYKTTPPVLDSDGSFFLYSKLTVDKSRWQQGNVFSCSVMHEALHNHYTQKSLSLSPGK
light: B1 light
notes: as for B1
B11: L328F (antibody, human IgG1, kappa)
heavy: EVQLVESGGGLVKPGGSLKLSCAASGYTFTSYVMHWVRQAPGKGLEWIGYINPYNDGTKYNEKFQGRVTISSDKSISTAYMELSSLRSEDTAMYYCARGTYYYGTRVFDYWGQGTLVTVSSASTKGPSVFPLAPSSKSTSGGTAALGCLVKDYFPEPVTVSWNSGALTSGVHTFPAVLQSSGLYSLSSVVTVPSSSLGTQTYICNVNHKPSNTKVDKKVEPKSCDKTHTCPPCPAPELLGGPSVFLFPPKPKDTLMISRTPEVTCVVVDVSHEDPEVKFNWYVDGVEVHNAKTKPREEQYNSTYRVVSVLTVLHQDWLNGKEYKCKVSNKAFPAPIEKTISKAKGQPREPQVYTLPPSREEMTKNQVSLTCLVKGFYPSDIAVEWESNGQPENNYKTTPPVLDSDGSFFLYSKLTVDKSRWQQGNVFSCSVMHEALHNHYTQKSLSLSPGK
light: B1 light
notes: as for B2
B12: G236D/S267E/L328F (antibody, human IgG1, kappa)
heavy: B1 heavy with D243S, L332F
light: B1 light
notes: as for B1
B13: G237N/S267E (antibody, human IgG1, kappa)
heavy: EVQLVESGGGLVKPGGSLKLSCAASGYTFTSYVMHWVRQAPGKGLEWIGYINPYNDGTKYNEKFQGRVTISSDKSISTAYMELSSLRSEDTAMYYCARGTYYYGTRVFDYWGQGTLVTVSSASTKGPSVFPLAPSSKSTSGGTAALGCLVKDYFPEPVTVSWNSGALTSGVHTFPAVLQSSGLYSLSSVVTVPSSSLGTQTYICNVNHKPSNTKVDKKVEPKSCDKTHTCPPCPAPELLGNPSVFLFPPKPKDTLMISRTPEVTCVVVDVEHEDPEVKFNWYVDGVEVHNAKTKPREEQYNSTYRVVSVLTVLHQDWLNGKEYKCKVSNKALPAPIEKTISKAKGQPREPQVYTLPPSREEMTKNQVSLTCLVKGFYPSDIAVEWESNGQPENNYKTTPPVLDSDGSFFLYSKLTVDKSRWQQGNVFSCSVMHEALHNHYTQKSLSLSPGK
light: B1 light
notes: as for B1

Target: T1, human FcγRIIb receptor protein (R&D …)
Experiment: SPR

Binder	Fold vs WT IgG1 [fold]	Kd [nM]
B1	84.8	17.3
B2	–	1770
B3	16.7	88.1
B4	26.4	55.7
B5	110	13.4
B6	42.3	34.7
B7	0.00225	652000
B8	195	7.53
B9	17	86.1
B10	15.1	97
B11	–	541
B12	149	9.87
B13	40.5	36.2

Target: T6, human FcγRI receptor protein (R&D Systems) (human, UniProt P12314 16-288)
T6 construct: also called soluble FcγRI; solFcγRI
T6 sequence (P12314 16-288 limits assumed): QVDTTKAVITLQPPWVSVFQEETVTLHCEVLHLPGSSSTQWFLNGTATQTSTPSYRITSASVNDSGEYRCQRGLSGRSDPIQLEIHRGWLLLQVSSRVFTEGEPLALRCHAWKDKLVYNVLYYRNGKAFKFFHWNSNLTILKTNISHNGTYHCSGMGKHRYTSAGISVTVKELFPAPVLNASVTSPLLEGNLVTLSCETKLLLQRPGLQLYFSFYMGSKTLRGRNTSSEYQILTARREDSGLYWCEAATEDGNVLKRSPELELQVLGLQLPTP
Experiment: SPR

Binder	Fold vs WT IgG1 [fold]	Kd [nM]
B1	0.0685	4.81
B2	–	10.5
B3	0.00039	854
B4	0.661	0.498
B5	0.0902	3.65
B7	0.0157	21
B8	0.0425	7.75
B9	0.0874	3.77
B10	0.131	2.51
B11	–	0.452
B12	0.0736	4.48
B13	0.101	3.25

Target: T2, human FcγRIIa (131R), His- and …
Experiment: SPR

Binder	Fold vs WT IgG1 [fold]	Kd [nM]
B1	26.7	32.2
B3	13	66.1
B4	20.7	41.6
B5	29.9	28.7
B6	98.5	8.72
B7	0.35	2460
B8	174	4.93
B9	13.6	63.1
B10	10.7	80.4
B11	–	166
B12	59.9	14.3
B13	61.5	14

Target: T3, human FcγRIIa (131H), His- and …
Experiment: SPR

Binder	Fold vs WT IgG1 [fold]	Kd [nM]	binding result
B1	0.217	2980	–
B2	–	1160	–
B3	–	–	no binding
B4	0.509	1270	–
B5	0.103	6300	–
B7	0.486	1330	–
B8	0.0725	8920	–
B9	–	–	no binding
B10	–	–	no binding
B12	0.0301	21500	–

Target: T7, human FcγRIIIa (158V), His- and GST-tagged (human, UniProt P08637 17-208)
T7 construct: also called V158 FcγRIIIa; VIIIa; not shown: 6xHis and GST tags of the pTT5 vector
T7 sequence (P08637 17-208 F176V): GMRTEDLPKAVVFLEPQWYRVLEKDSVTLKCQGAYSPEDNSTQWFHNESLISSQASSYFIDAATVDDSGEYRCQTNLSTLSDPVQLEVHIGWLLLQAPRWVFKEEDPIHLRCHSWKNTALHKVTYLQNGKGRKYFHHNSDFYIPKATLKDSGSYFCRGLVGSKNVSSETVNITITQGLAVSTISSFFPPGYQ
Experiment: SPR

Binder	binding result	Kd [nM]	Fold vs WT IgG1 [fold]
B1	no binding	–	–
B2	–	6590	–
B3	no binding	–	–
B4	–	2040	0.0938
B5	no binding	–	–
B7	no binding	–	–
B8	no binding	–	–
B9	no binding	–	–
B10	no binding	–	–
B11	–	58400	–
B12	no binding	–	–
B13	no binding	–	–

Target: T4, mFcγRIIb
Experiment: SPR

Binder	Fold vs WT IgG1 (Kd) [fold]
B6	0.761

Target: T5, cynoFcγRIIb
Experiment: SPR

Binder	Fold vs WT IgG1 (Kd) [fold]
B6	2.25
